Results: article doi:10.1101/2019.12.30.891283 (bioRxiv, 2019)

Target: the molecule itself
Test: native MS

B1: enoyl-ACP reductase (FabI) from E. coli (enzyme)
chain: MGFLSGKRILVTGVASKLSIAYGIAQAMHREGAELAFTYQNDKLKGRVEEFAAQLGSDIVLQCDVAEDASIDTMFAELGKVWPKFDGFVHSIGFAPGDQLDGDYVNAVTREGFKIAHDISSYSFVAMAKACRSMLNPGSALLTLSYLGAERAIPNYNVMGLAKASLEANVRYMANAMGPEGVRVNAISAGPIRTLAASGIKDFRKMLAHCEAVTPIRRTVTIEDVGNSAAFLCSDLSAGISGEVVHVDGGFSIAAMNELELK
stoichiometry N: 4
